This assay deals with mutant form of α-Gal A expressed in HEK-293 cells. The experiment in a line: HEK assay (GLP HEK / Migalastat Amenability Assay): α-Gal A activity in lysates of transiently transfected HEK-293 cells incubated with or without 10 μM migalastat. In kind it is cell-based, human. The following applies: for Absolute increase (% WT) / Relative increase: 10 μM migalastat versus baseline; for Baseline α-Gal A activity (% WT): absence of migalastat; for Baseline α-Gal A activity (% WT) / 10 μM migalastat α-Gal A activity (% WT): percentage of baseline wild-type α-Gal A activity; for Baseline α-Gal A activity (% WT) / Baseline α-Gal A activity / 10 μM migalastat α-Gal A activity / 10 μM migalastat α-Gal A activity (% WT): mean ± SEM; for Baseline α-Gal A activity / 10 μM migalastat α-Gal A activity: lysates of HEK-293 cells transiently transfected with the mutant form; for Baseline α-Gal A activity: incubated 5 days in absence of migalastat; for 10 μM migalastat α-Gal A activity: incubated 5 days with 10 μM migalastat; for 10 μM migalastat α-Gal A activity (% WT): with 10 μM migalastat, 5 days. The gist of the method: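 HEK-293 cells transiently transfected with mutant α-Gal A and incubated with or without 10 μM migalastat; lysate activity given as nmol free 4-MU released per mg protein per hour. Values are mean±SEM.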

B1: L286H (protein)
chain: MQLRNPELHLGCALALRFLALVSWDIPGARALDNGLARTPTMGWLHWERFMCNLDCQEEPDSCISEKLFMEMAELMVSEGWKDAGYEYLCIDDCWMAPQRDSEGRLQADPQRFPHGIRQLANYVHSKGLKLGIYADVGNKTCAGFPGSFGYYDIDAQTFADWGVDLLKFDGCYCDSLENLADGYKHMSLALNRTGRSIVYSCEWPLYMWPFQKPNYTEIRQYCNHWRNFADIDDSWKSIKSILDWTSFNQERIVDVAGPGGWNDPDMLVIGNFGLSWNQQVTQMAHWAIMAAPLFMSNDLRHISPQAKALLQDKDVIAINQDPLGKQGYQLRQGDNFEVWERPLSGLAWAVAMINRQEIGGPRSYTIAVASLGKGVACNPACFITQLLPVKRKLGFYEWTSRLRSHINPTGTVLLQLENTMQMSLKDLL
With B1, the “Absolute increase (% WT)” value was determined as 15.4 % WT, the Relative increase came out at 22.2, the “Baseline α-Gal A activity (% WT)” value came out at 0.8 ± 0.1 % WT and the “Baseline α-Gal A activity” value amounted to 359 ± 52 nmol/mg/h. The “10 μM migalastat α-Gal A activity” value turned out to be 7960 ± 1511 nmol/mg/h and the “10 μM migalastat α-Gal A activity (% WT)” value came out at 16.2 ± 2.5 % WT.

B2: L286V (protein)
chain: MQLRNPELHLGCALALRFLALVSWDIPGARALDNGLARTPTMGWLHWERFMCNLDCQEEPDSCISEKLFMEMAELMVSEGWKDAGYEYLCIDDCWMAPQRDSEGRLQADPQRFPHGIRQLANYVHSKGLKLGIYADVGNKTCAGFPGSFGYYDIDAQTFADWGVDLLKFDGCYCDSLENLADGYKHMSLALNRTGRSIVYSCEWPLYMWPFQKPNYTEIRQYCNHWRNFADIDDSWKSIKSILDWTSFNQERIVDVAGPGGWNDPDMLVIGNFGLSWNQQVTQMAVWAIMAAPLFMSNDLRHISPQAKALLQDKDVIAINQDPLGKQGYQLRQGDNFEVWERPLSGLAWAVAMINRQEIGGPRSYTIAVASLGKGVACNPACFITQLLPVKRKLGFYEWTSRLRSHINPTGTVLLQLENTMQMSLKDLL
For B2, the “Absolute increase (% WT)” value came out at 32.9 % WT, the Relative increase is given as 1.4, the “Baseline α-Gal A activity (% WT)” value was found to be 66 ± 5.1 % WT and the “Baseline α-Gal A activity” value was determined as 28713 ± 3734 nmol/mg/h. In addition, the “10 μM migalastat α-Gal A activity” value amounted to 41335 ± 3422 nmol/mg/h and the “10 μM migalastat α-Gal A activity (% WT)” value was 98.9 ± 4.3 % WT.

B3: A288G (protein)
chain: MQLRNPELHLGCALALRFLALVSWDIPGARALDNGLARTPTMGWLHWERFMCNLDCQEEPDSCISEKLFMEMAELMVSEGWKDAGYEYLCIDDCWMAPQRDSEGRLQADPQRFPHGIRQLANYVHSKGLKLGIYADVGNKTCAGFPGSFGYYDIDAQTFADWGVDLLKFDGCYCDSLENLADGYKHMSLALNRTGRSIVYSCEWPLYMWPFQKPNYTEIRQYCNHWRNFADIDDSWKSIKSILDWTSFNQERIVDVAGPGGWNDPDMLVIGNFGLSWNQQVTQMALWGIMAAPLFMSNDLRHISPQAKALLQDKDVIAINQDPLGKQGYQLRQGDNFEVWERPLSGLAWAVAMINRQEIGGPRSYTIAVASLGKGVACNPACFITQLLPVKRKLGFYEWTSRLRSHINPTGTVLLQLENTMQMSLKDLL
On to B3, for which the “Absolute increase (% WT)” value was found to be 19.9 % WT, the Relative increase is 1.4, the “Baseline α-Gal A activity (% WT)” value worked out at 56.8 ± 6.3 % WT and the “Baseline α-Gal A activity” value stood at 22208 ± 1755 nmol/mg/h. Further, the “10 μM migalastat α-Gal A activity” value came out at 30458 ± 2381 nmol/mg/h and the “10 μM migalastat α-Gal A activity (% WT)” value is given as 76.7 ± 7.4 % WT.

(Values after patent publication US11833164B2, “Methods of treating Fabry disease in patients having a mutation in the GLA gene” (Amicus Therapeutics, Inc., priority 2019, dated 2023).)
